From article PMC2756588

T1: Cdc25, P04821
T1 sequence (P04821 50-136, looked up): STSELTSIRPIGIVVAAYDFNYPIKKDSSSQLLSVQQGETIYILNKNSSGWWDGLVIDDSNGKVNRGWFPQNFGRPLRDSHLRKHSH

T2: Bzz1-1, P38822
T2 sequence (P38822 478-572, looked up): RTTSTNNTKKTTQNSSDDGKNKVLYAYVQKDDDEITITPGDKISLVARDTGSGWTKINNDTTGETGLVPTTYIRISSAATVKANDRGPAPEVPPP

T3: Abp1, P15891
T3 sequence (P15891 535-592, looked up): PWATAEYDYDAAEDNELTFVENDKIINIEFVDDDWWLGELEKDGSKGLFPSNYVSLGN

T4: Nbp2, Q12163
T4 sequence (Q12163 103-180, looked up): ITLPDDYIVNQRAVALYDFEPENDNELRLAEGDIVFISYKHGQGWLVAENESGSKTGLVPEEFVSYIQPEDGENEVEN

T5: Bud14, P27637
T5 sequence (P27637 247-328, looked up): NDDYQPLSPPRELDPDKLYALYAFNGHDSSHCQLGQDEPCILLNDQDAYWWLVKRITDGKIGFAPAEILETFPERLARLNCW

T6: Pex13, P80667
T6 sequence (P80667 295-386, looked up): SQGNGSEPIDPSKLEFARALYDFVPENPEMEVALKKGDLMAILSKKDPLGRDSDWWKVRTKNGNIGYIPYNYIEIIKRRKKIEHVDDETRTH

T7: Boi1, P38041
T7 sequence (P38041 1-86, looked up): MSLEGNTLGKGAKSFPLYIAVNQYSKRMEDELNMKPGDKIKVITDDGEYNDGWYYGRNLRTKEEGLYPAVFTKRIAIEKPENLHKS

T8: Pin3, Q06449
T8 sequence (Q06449 53-122, looked up): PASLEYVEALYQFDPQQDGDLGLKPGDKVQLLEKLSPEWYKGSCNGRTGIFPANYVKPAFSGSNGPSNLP

T9: Hse1, P38753
T9 sequence (P38753 208-285, looked up): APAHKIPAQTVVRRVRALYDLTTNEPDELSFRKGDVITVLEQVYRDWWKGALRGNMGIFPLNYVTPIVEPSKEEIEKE

T10: Bbc1, P47068
T10 sequence (P47068 1-78, looked up): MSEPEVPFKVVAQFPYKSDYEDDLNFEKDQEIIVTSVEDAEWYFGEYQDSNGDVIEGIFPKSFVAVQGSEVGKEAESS

T11: Myo5, Q04439
T11 sequence (Q04439 1072-1160, looked up): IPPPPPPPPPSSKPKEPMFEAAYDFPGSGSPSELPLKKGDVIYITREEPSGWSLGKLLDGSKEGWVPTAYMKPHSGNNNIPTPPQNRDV

T12: Lsb3, P43603
T12 sequence (P43603 385-451, looked up): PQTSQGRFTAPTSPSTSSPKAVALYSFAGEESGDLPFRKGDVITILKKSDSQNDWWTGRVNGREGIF

T13: Sla1-2, P32790
T13 sequence (P32790 60-140, looked up): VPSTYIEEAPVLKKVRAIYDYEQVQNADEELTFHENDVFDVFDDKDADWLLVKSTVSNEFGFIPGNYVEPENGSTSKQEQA

T14: Fus1, P11710
T14 sequence (P11710 432-512, looked up): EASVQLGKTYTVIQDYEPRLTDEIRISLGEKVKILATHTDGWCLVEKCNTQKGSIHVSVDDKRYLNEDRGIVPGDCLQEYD

T15: Hof1, Q05080
T15 sequence (Q05080 590-669, looked up): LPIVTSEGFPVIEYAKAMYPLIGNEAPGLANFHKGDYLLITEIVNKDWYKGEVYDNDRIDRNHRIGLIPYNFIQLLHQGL

T16: Lsb1, P53281
T16 sequence (P53281 45-122, looked up): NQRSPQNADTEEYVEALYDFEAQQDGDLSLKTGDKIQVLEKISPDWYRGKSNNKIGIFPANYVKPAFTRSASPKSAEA

T17: Sla1-3, P32790
T17 sequence (P32790 344-424, looked up): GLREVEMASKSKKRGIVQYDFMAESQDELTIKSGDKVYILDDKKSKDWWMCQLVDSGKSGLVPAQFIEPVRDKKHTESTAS

T18: Cyk3, Q07533
T18 sequence (Q07533 1-83, looked up): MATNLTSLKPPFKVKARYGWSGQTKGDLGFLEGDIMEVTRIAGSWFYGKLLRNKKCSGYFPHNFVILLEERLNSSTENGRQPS

T19: Boi2, P39969
T19 sequence (P39969 32-116, looked up): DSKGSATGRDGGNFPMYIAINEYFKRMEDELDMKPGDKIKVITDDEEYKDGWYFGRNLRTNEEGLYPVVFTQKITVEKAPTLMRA

T20: Lsb4, P32793
T20 sequence (P32793 402-468, looked up): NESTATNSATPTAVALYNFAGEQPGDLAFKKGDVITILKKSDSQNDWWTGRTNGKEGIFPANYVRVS

T21: Bzz1-2, P38822
T21 sequence (P38822 568-633, looked up): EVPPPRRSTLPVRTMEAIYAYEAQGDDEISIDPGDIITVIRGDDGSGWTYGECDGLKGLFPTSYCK


Assays:
Assay in all cases: SPOT array
Cdc25, P04821 = molecular target: T1, Cdc25, P04821; conditions: median of control spots 969
Bzz1-1, P38822 = molecular target: T2, Bzz1-1, P38822; conditions: median of control spots 4446
Abp1, P15891 = molecular target: T3, Abp1, P15891; conditions: median of control spots 935
Nbp2, Q12163 = molecular target: T4, Nbp2, Q12163; conditions: median of control spots 357
Bud14, P27637 = molecular target: T5, Bud14, P27637; conditions: median of control spots 956
Pex13, P80667 = molecular target: T6, Pex13, P80667; conditions: median of control spots 1341
Boi1, P38041 = molecular target: T7, Boi1, P38041; conditions: median of control spots 1162
Pin3, Q06449 = molecular target: T8, Pin3, Q06449; conditions: median of control spots 2171
Hse1, P38753 = molecular target: T9, Hse1, P38753; conditions: median of control spots 1727
Rvs167, P39743 = conditions: median of control spots 2707
Rvs167, P39743, sequence (P39743 419-482): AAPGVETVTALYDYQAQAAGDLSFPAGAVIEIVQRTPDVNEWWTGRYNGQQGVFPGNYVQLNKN

Bem1-1, P29366 = conditions: median of control spots 4282
Bem1-1, P29366, sequence (P29366 55-141): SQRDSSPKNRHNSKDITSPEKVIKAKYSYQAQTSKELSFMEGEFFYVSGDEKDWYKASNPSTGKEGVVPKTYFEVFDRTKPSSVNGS

Bbc1, P47068 = molecular target: T10, Bbc1, P47068; conditions: median of control spots 796
Myo3, P36006 = conditions: median of control spots 468
Myo5, Q04439 = molecular target: T11, Myo5, Q04439; conditions: median of control spots 471
Bem1-2, P29366 = conditions: median of control spots 4347
Bem1-2, P29366, sequence (P29366 139-227): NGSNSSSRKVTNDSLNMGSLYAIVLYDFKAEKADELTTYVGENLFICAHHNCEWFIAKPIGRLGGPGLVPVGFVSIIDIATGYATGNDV

Lsb3, P43603 = molecular target: T12, Lsb3, P43603; conditions: median of control spots 406
Sla1-2, P32790 = molecular target: T13, Sla1-2, P32790; conditions: median of control spots 712
Fus1, P11710 = molecular target: T14, Fus1, P11710; conditions: median of control spots 1200
Hof1, Q05080 = molecular target: T15, Hof1, Q05080; conditions: median of control spots 4086
GST = conditions: median of control spots 978
Lsb1, P53281 = molecular target: T16, Lsb1, P53281; conditions: median of control spots 388
Sho1, P40073 = conditions: median of control spots 1148
Sho1, P40073, sequence (P40073 287-367): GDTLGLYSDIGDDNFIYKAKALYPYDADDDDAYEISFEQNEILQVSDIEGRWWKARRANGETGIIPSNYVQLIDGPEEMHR

Sla1-3, P32790 = molecular target: T17, Sla1-3, P32790; conditions: median of control spots 5475
Cyk3, Q07533 = molecular target: T18, Cyk3, Q07533; conditions: median of control spots 1451
Boi2, P39969 = molecular target: T19, Boi2, P39969; conditions: median of control spots 1161
Lsb4, P32793 = molecular target: T20, Lsb4, P32793; conditions: median of control spots 397
Bzz1-2, P38822 = molecular target: T21, Bzz1-2, P38822; conditions: median of control spots 4538

SPOT intensity (Cdc25, P04821)	SPOT intensity (Bzz1-1, P38822)	SPOT intensity (Abp1, P15891)	SPOT intensity (Nbp2, Q12163)	SPOT intensity (Bud14, P27637)	SPOT intensity (Pex13, P80667)	SPOT intensity (Boi1, P38041)	SPOT intensity (Pin3, Q06449)	SPOT intensity (Hse1, P38753)	SPOT intensity (Rvs167, P39743)	SPOT intensity (Bem1-1, P29366)	SPOT intensity (Bbc1, P47068)	SPOT intensity (Myo3, P36006)	SPOT intensity (Myo5, Q04439)	SPOT intensity (Bem1-2, P29366)	SPOT intensity (Lsb3, P43603)	SPOT intensity (Sla1-2, P32790)	SPOT intensity (Fus1, P11710)	SPOT intensity (Hof1, Q05080)	SPOT intensity (GST)	Binder	also measured
9	0	28	0	3	110	0	61	9	5	0	1	10	6	0	4	5	0	0	0	LLGRKRPVMERVVDI	SPOT intensity (Lsb1, P53281): 4; SPOT intensity (Sho1, P40073): 74; SPOT intensity (Sla1-3, P32790): 4; SPOT intensity (Cyk3, Q07533): 0; SPOT intensity (Boi2, P39969): 1; SPOT intensity (Lsb4, P32793): 27; SPOT intensity (Bzz1-2, P38822): 4
236	0	37	28	15	16	16	2	15	7	0	140	8	0	10	2	1	15	15	0	SRYRRPLTLLLLKPF	SPOT intensity (Lsb1, P53281): 7; SPOT intensity (Sho1, P40073): 78; SPOT intensity (Sla1-3, P32790): 15; SPOT intensity (Cyk3, Q07533): 3; SPOT intensity (Boi2, P39969): 0; SPOT intensity (Lsb4, P32793): 2; SPOT intensity (Bzz1-2, P38822): 4
156	0	101	16	26	2	13	2	54	0	0	273	5	1	15	0	3	19	20	9	YVRRRPRVRLEPLLS	SPOT intensity (Lsb1, P53281): 13; SPOT intensity (Sho1, P40073): 102; SPOT intensity (Sla1-3, P32790): 44; SPOT intensity (Cyk3, Q07533): 4; SPOT intensity (Boi2, P39969): 17; SPOT intensity (Lsb4, P32793): 3; SPOT intensity (Bzz1-2, P38822): 15
54	2	92	0	6	3	0	3	3	2	2	46	4	1	1	3	0	0	2	4	KNPRRQLQIPRQQPS	SPOT intensity (Lsb1, P53281): 216; SPOT intensity (Sho1, P40073): 99; SPOT intensity (Sla1-3, P32790): 3; SPOT intensity (Cyk3, Q07533): 0; SPOT intensity (Boi2, P39969): 0; SPOT intensity (Lsb4, P32793): 8; SPOT intensity (Bzz1-2, P38822): 2
44	0	18	100	13	12	7	0	43	31	0	184	0	0	108	2	0	14	52	1	LLRRTIPKRPFYHVL	SPOT intensity (Lsb1, P53281): 139; SPOT intensity (Sho1, P40073): 26; SPOT intensity (Sla1-3, P32790): 245; SPOT intensity (Cyk3, Q07533): 0; SPOT intensity (Boi2, P39969): 2; SPOT intensity (Lsb4, P32793): 2; SPOT intensity (Bzz1-2, P38822): 13
115	1	22	14	10	10	3	1	43	5	3	19	0	0	15	0	0	37	25	0	FFRRSELYLPNSSKA	SPOT intensity (Lsb1, P53281): 2; SPOT intensity (Sho1, P40073): 62; SPOT intensity (Sla1-3, P32790): 53; SPOT intensity (Cyk3, Q07533): 0; SPOT intensity (Boi2, P39969): 0; SPOT intensity (Lsb4, P32793): 0; SPOT intensity (Bzz1-2, P38822): 5
